Laboratory results published in US5985836A, “Alpha-1 proteinase inhibitor binding peptides” (Bayer Corporation, priority 1998, dated 1999).
Ends that are not written are not given here.

What was measured:
A1PI [1] = target: T1, A1PI (Homo sapiens, UniProt P01009); assay: Purification of A1PI from Effluent II+III on peptide column, A1PI mass balance; assay type: binding; details: A1PI, 1 ml Eff. II+III, 4° C.
T1 construct: Human plasma is currently the only approved source of therapeutic AlPI
Procedure, shortened: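 First, 1 ml of the ethanolic Cohn intermediate (20% ethanol, ~1 mg/ml A1PI) is injected and held for a 10 min residence time. Columns are then eluted stepwise at a constant 865 μl/min with 1M NaCl, 3M NaCl and finally 2% acetic acid, all at 4° C.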

A1PI [2] = target: T1, A1PI; assay: Capture and elution of active A1PI with 2M urea buffer (elastase inhibition activity assay and immunonephelometry); assay type: binding; details: 4° C.; for Mass A1PI in Urea Eluate (mg), Activity / Mass A1PI in Urea Eluate (mg), Nephelometry: 1 mg A1PI, eluted with 2M urea, pH 6; for Mass A1PI in Urea Eluate (mg), Activity: elastase inhibition activity assay; for Mass A1PI in Urea Eluate (mg), Nephelometry: immunonephelometry; for Specific Activity: mass of A1PI by activity assay relative to immunonephelometry, urea eluate
A1PI [3] = target: T1, A1PI; assay: A1PI binding on peptide-resin column, injection of 1 mg A1PI in equilibration buffer; details: for Percent AlPI Eluted by Fraction, 1M NaCl / Percent AlPI Eluted by Fraction, 2% Acetic Acid / Percent AlPI Eluted by Fraction, Flowthrough: sequence order, 1 mg AlPI
Procedure, shortened: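 Percent of total eluted A1PI per fraction (flowthrough, NaCl steps, 2% acetic acid) determined by A280 integration or immunonephelometry. Columns of peptide-derivatized A-Totda-Toyopearl resin (0.1 mmole/g) received 1 mg A1PI at 4 °C or 20 °C, flow 865 or 523 μl/min.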

Immunoglobulin A (IgA) = assay: Purification from Effluent II+III, IgA mass balance; assay type: binding, human; details: 1 ml Eff. II+III, 4° C.
Protocol: (§1) Sequences 1-11 and 15 were assayed with Effluent II+III (Eff. II+III). Eff. II+III is a process intermediate in the Cohn plasma fractionation process. The feed stream contains 20% (by volume) ethanol, 20-25 mg/ml hSA and approximately 1 mg/ml AlPI. The stream also contains other proteins including anti-thrombin III (AT3), immunoglobin G (IgG), immunoglobin A (IgA), apolipoprotein alpha-1 (Apo A-1), transferrin (Trf), haptoglobin (Hpt), and alpha-1 acid glycoprotein (AAG) at concentrations ranging from 0.1-1 mg/ml.
(§2) The columns were assayed using the same technique as the hSA+AlPI experiments, allowing for a 10 minute residence time followed by a constant flow rate of 865 μl/min with step elutions of 1M NaCl, 3M NaCl, and 2% acetic acid. All experiments were conducted at 4° C. The mass balances for the injection of 1 ml Eff. […] The AlPI was enriched from 3% of the total protein in the feed to upwards of 50% in the acid eluate.

Immunoglobulin G (IgG) = assay: Purification from Effluent II+III, IgG mass balance; assay type: binding, human; details: 1 ml Eff. II+III, 4° C.
Protocol: as §1, §2

[4] = target: T2, apolipoprotein alpha-1 (Apo A-1) (Homo sapiens, UniProt P02647); assay: Purification from Effluent II+III, Apo A-1 mass balance; assay type: binding; details: 1 ml Eff. II+III, 4° C.
T2 construct: Eff; II+III is a process intermediate in the Cohn plasma fractionation process; tissue Bayer Corporation (Clayton, N.C.); host or cells: plasma fraction: Cohn Effluent II+III
T2 sequence (P02647 19-267): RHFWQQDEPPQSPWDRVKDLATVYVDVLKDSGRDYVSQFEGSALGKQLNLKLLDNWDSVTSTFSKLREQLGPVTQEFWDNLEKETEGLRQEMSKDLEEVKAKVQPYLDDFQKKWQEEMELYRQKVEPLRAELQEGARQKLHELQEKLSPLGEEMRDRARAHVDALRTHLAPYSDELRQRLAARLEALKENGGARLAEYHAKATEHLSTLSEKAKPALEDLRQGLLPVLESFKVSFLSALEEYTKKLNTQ
Protocol: as §1, §2

A1PI [5] = target: T1, A1PI; assay: A1PI purification from 5 mg hSA + 1 mg A1PI on peptide column, A1PI mass balance; assay type: binding; details: A1PI, 5 mg hSA + 1 mg A1PI; for Mass Protein per Eluate Fraction, 1M NaCl / Mass Protein per Eluate Fraction, 2% Ac. Acid / Mass Protein per Eluate Fraction, Flow / Mass Protein per Eluate Fraction, 2% Acetic Acid: * Below detection limit
Procedure, shortened: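 Mass balance by immunonephelometry of fractions from step elutions (1M NaCl, 3M NaCl, 2% acetic acid, neutralised with Tris) at 865 μl/min. Sample was a mixture of 1 mg A1PI and 5 mg hSA held 10 min on peptide-derivatised Toyopearl columns (0.1 mmole/g) at 4 °C or 20 °C.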

[6] = * as in Tables 4, 5 (below detection limit)
[7] = 1 mg A1PI in equilibration buffer, 4° C.
[8] = 1 mg A1PI in equilibration buffer, 20° C.
[9] = 4° C., relative to total eluted
[10] = 20° C., relative to total eluted
[11] = Table 19, 4° C., relative to total loaded
[12] = Table 19, 20° C., relative to total loaded

T1 sequence (P01009 25-418): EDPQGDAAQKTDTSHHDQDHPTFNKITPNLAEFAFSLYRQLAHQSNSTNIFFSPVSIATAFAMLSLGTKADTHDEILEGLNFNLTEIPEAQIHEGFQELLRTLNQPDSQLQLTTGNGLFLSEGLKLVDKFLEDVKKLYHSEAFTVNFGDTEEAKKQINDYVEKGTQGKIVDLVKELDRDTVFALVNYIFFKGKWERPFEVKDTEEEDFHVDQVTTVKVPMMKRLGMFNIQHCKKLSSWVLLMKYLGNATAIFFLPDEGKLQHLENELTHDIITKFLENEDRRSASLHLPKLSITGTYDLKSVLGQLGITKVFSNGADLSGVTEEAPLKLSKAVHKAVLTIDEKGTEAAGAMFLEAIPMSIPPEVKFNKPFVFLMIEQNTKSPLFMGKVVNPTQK

With RAFWYI the “Percent Eluted by Fraction, 1M NaCl” value (A1PI [1]) was 4%, the “Percent Eluted by Fraction, 2% Acetic Acid” value (A1PI [1]) was 80% and the “Percent Eluted by Fraction, 3M NaCl” value (A1PI [1]) was 0%. For the same substance, the “Percent Eluted by Fraction, Flow” value (A1PI [1]) was 17%, the “Mass Protein per Eluate Fraction, 1M NaCl” value (A1PI [1]; [6]) was 0.04 mg and the “Mass Protein per Eluate Fraction, 2% Acetic Acid” value (A1PI [1]; [6]) was 0.87 mg. The “Mass Protein per Eluate Fraction, Flow” value (A1PI [1]; [6]) was 0.18 mg, the “Mass A1PI in Urea Eluate (mg), Activity” value (A1PI [2]) was 0.62 mg and the “Mass A1PI in Urea Eluate (mg), Nephelometry” value (A1PI [2]) was 0.71 mg. For the same substance, the “Specific Activity” value (A1PI [2]) was 0.87 mg/mg, the “Percent A1PI Eluted by Fraction Based on Absorbance at 280 nm, 1M NaCl” value (A1PI [3]; [7]) was 55% and the “Percent A1PI Eluted by Fraction Based on Absorbance at 280 nm, 2% Acetic Acid” value (A1PI [3]; [7]) was 45%. For the same substance, the “Percent A1PI Eluted by Fraction Based on Absorbance at 280 nm, Flowthrough” value (A1PI [3]; [7]) was 0%, the “Percent A1PI Eluted by Fraction, 1M NaCl” value (A1PI [3]; [8]) was 72% and the “Percent A1PI Eluted by Fraction, 2% Acetic Acid” value (A1PI [3]; [8]) was 28%. For the same substance, the “Percent A1PI Eluted by Fraction, Flowthrough” value (A1PI [3]; [8]) was 0%, the “Percent Eluted by Fraction, 1M NaCl” value (Immunoglobulin A (IgA)) was 36% and the “Percent Eluted by Fraction, 2% Acetic Acid” value (Immunoglobulin A (IgA)) was 29%. The “Percent Eluted by Fraction, 3M NaCl” value (Immunoglobulin A (IgA)) was 0%, the “Percent Eluted by Fraction, Flow” value (Immunoglobulin A (IgA)) was 35% and the “Mass Protein per Eluate Fraction, 1M NaCl” value (Immunoglobulin A (IgA); [6]) was 0.12 mg. For the same substance, the “Mass Protein per Eluate Fraction, 2% Acetic Acid” value (Immunoglobulin A (IgA); [6]) was 0.10 mg, the “Mass Protein per Eluate Fraction, Flow” value (Immunoglobulin A (IgA); [6]) was 0.12 mg and the “Percent Eluted by Fraction, 1M NaCl” value (Immunoglobulin G (IgG)) was 9%. For the same substance, the “Percent Eluted by Fraction, 2% Acetic Acid” value (Immunoglobulin G (IgG)) was 0%, the “Percent Eluted by Fraction, 3M NaCl” value (Immunoglobulin G (IgG)) was 0% and the “Percent Eluted by Fraction, Flow” value (Immunoglobulin G (IgG)) was 91%. The “Mass Protein per Eluate Fraction, 1M NaCl” value (Immunoglobulin G (IgG); [6]) was 0.02 mg, the “Mass Protein per Eluate Fraction, Flow” value (Immunoglobulin G (IgG); [6]) was 0.24 mg and the “Percent Eluted by Fraction, 1M NaCl” value [4] was 0%. For the same substance, the “Percent Eluted by Fraction, 2% Acetic Acid” value [4] was 100%, the “Percent Eluted by Fraction, 3M NaCl” value [4] was 0% and the “Percent Eluted by Fraction, Flow” value [4] was 0%. For the same substance, the “Mass Protein per Eluate Fraction, 2% Acetic Acid” value [4, 6] was 0.29 mg, the “Mass Protein per Eluate Fraction, 1M NaCl” value (A1PI [5]; 4° C.) was 0.19 mg and the “Mass Protein per Eluate Fraction, 2% Ac. Acid” value (A1PI [5]; 4° C.) was 0.45 mg. The “Mass Protein per Eluate Fraction, Flow” value (A1PI [5]; 4° C.) was 0.26 mg, the “Percent Eluted by Fraction, 1M NaCl” value (A1PI [5]; [9]) was 21% and the “Percent Eluted by Fraction, 2% Ac. Acid” value (A1PI [5]; [9]) was 50%. The “Percent Eluted by Fraction, 3M NaCl” value (A1PI [5]; [9]) was 0%, the “Percent Eluted by Fraction, Flow” value (A1PI [5]; [9]) was 29% and the “Mass Protein per Eluate Fraction, 1M NaCl” value (A1PI [5]; 20° C.) was 0.14 mg. For the same substance, the “Mass Protein per Eluate Fraction, 2% Ac. Acid” value (A1PI [5]; 20° C.) was 0.54 mg, the “Mass Protein per Eluate Fraction, Flow” value (A1PI [5]; 20° C.) was 0.09 mg and the “Percent Eluted by Fraction, 1M NaCl” value (A1PI [5]; [10]) was 19%. The “Percent Eluted by Fraction, 2% Ac. Acid” value (A1PI [5]; [10]) was 70%, the “Percent Eluted by Fraction, 3M NaCl” value (A1PI [5]; [10]) was 0% and the “Percent Eluted by Fraction, Flow” value (A1PI [5]; [10]) was 11%.

For “RVLFIH: reversed sequence of VIFLVR with C-terminal His”, the “Mass A1PI in Urea Eluate (mg), Activity” value (A1PI [2]) was 0.56 mg, the “Mass A1PI in Urea Eluate (mg), Nephelometry” value (A1PI [2]) was 0.71 mg and the “Specific Activity” value (A1PI [2]) was 0.79 mg/mg. The “Percent AlPI Eluted by Fraction, 1M NaCl” value (A1PI [3]; 4° C.) was 29%, the “Percent AlPI Eluted by Fraction, 2% Acetic Acid” value (A1PI [3]; 4° C.) was 71% and the “Percent AlPI Eluted by Fraction, Flowthrough” value (A1PI [3]; 4° C.) was 0%. The “Percent AlPI Eluted by Fraction, 1M NaCl” value (A1PI [3]; 20° C.) was 3%, the “Percent AlPI Eluted by Fraction, 2% Acetic Acid” value (A1PI [3]; 20° C.) was 97% and the “Percent AlPI Eluted by Fraction, Flowthrough” value (A1PI [3]; 20° C.) was 0%. For the same substance, the “Mass Protein per Eluate Fraction, 1M NaCl” value (A1PI [5]; Table 19, 4° C.) was 0.14 mg, the “Mass Protein per Eluate Fraction, 2% Acetic Acid” value (A1PI [5]; Table 19, 4° C.) was 0.43 mg and the “Mass Protein per Eluate Fraction, Flow” value (A1PI [5]; Table 19, 4° C.) was 0.31 mg. The “Percent Eluted by Fraction, 1M NaCl” value (A1PI [5]; [11]) was 16%, the “Percent Eluted by Fraction, 2% Acetic Acid” value (A1PI [5]; [11]) was 49% and the “Percent Eluted by Fraction, 3M NaCl” value (A1PI [5]; [11]) was 0%. For the same substance, the “Percent Eluted by Fraction, Flow” value (A1PI [5]; [11]) was 35%, the “Mass Protein per Eluate Fraction, 1M NaCl” value (A1PI [5]; Table 19, 20° C.) was 0.00 mg and the “Mass Protein per Eluate Fraction, 2% Acetic Acid” value (A1PI [5]; Table 19, 20° C.) was 0.65 mg. For the same substance, the “Mass Protein per Eluate Fraction, Flow” value (A1PI [5]; Table 19, 20° C.) was 0.09 mg, the “Percent Eluted by Fraction, 1M NaCl” value (A1PI [5]; [12]) was 0% and the “Percent Eluted by Fraction, 2% Acetic Acid” value (A1PI [5]; [12]) was 88%. For the same substance, the “Percent Eluted by Fraction, 3M NaCl” value (A1PI [5]; [12]) was 0% and the “Percent Eluted by Fraction, Flow” value (A1PI [5]; [12]) was 12%.
